This sample holds only a part of the variants without activity.
B1: TPR 5TU (parent)
chain: GGAUCUUCUCGAUCUAACAAAAAAGACAAAUCUGCCACAAAGCUUGAGAGCAUCUUCGGAUGCAGAGGCGGCAGCCUUCGGUGGCGCGAUAGCGCCAACGUUCUCAACUAUGACACGCAAAACGCGUGCUCCGUUGAAUGGAGUUUAUCAUG

Variants of: B1
Assay: polymerase ribozyme fitness, log enrichment relative to wild type (log ratio); higher = more active; in vitro selection for triplet polymerase activity
Procedure, shortened: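 PCR was used to build mutant libraries for each subunit of a heterodimeric triplet polymerase ribozyme, which were then transcribed. A single in vitro selection round, in triplicate, used a frozen incubation at −7 °C and recovered extended constructs by gel excision, streptavidin beads and RT-PCR. Fitness is the logarithm of genotype enrichment relative to wild-type enrichment, averaged over replicates with inverse-variance weights. The logarithm is base 2, and after Illumina sequencing only genotypes with ≥10 input reads and ≥1 read per output were kept.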

Row | Variant | polymerase ribozyme fitness (log ratio)
1 | GGAUCUUCUCGAUCUAACAGAAAAGACAAAUCUGCCACAAAGCUUGAGAGCAUCUUCGAAUGCAGAGGCGGCAGCCUUCGGUGGCGCGAUAGCGCCAACGUUCUCAACUAUGACACGCAAAACGCGUGCUCCGUUGAAUGGAGUUUAUCAUG | -0.551
2 | GGAUCUUCUCGAUCUAACAGAAAAGACAAAUCUGCCACAAAGCUUGAGAGUAUCUUCGGAUGCAGAGGCGGCAGCCUUCGGUGGCGCGAUAGCGCCAACGUUCUCAACUAUGACACGCAAAACGCGUGCUCCGUUGAAUGGAGUUUAUCAUG | -0.842
3 | GGAUCUUCUCGAUCUAACAGAAAAGACAAAUCUGCCACAAAGCUUGAGAGCAUCUUCGGAUGCAGAGGCGGCAGCCUUCGGUGGCGCGAUAGCGCCAACGUUCUCAACUAUGACACGCAAAACGAGUGCUCCGUUGAAUGGAGUUUAUCAUG | -0.707
4 | GGAUCUUCUCGAUCUAACAGAAAAGACAAAUCUGCCACAAAGCUUGAGAGCAUCUUCGGAUGCAGAGGCGGCAGCCUUCGGUGGUGCGAUAGCUGCAACGUUCUCAACUAUGACACGCAAAACGUGUGCUCCGUUGAAUGGAGUUUAUCAUG | -3.59
5 | GGAUCUUCUCGAUCUAACAGAAAAGACAAAUCUGCCAUAAAGCUUGCGAGCAUCUUCGGGUGCAGAGGCGGCAGCCUUCGGUGGCGCGAUAGUGCCAACGUUCUCGACUAUGACACGCAAAACGCGUUCUCCGUUGAAUGGAGUUUAUCAUG | ≤ -4.2
6 | GGAUCUUCUCGAUCUAACAGAAAAGACAAAUCUGCCACAAAGCUUGAGAGCAUCUUCGGAUGCAGAGGCGGCAGCCUUCGGUGGCGUGAUAGCGCCAACGUUCUCAACUAUGACACGCAAAACGCGUGCUCCGUUGAAUGGAGUUUAACAUG | -3.21
7 | GGAUCUUCUCGAUCUAACAGAAAAGACAAAUCUGCCACAAAGCUUGAGAGCAUCUUCGGAUGCAGAGGCGGCAGCCUUCCGAGGCGCGAUAGCGCCAACAUUCUCAACUAUGACACGCAAAACGCGUGCUCCGUCGAAUGGAGUUUAUCAUG | ≤ -4.2
8 | GGAUCUUCUCGAUCUAACAGAAAAGACAAAUCUGCCACAAAGCUUGAGAGCAUCUUCGGAUGCAGAGGCGGCAGCCUUCGGUGGCGCGAUAGCGACAACGUUCUCAACUGUGACACGCAAAACGCGUGCUCCGUUGAAUGGAGUUUAUCAUG | -3.46
9 | GGAUCUUCUCGAUCUAACAGAAAAGACAAAUCUGCCACAAAGCUUGAGAGCAUCUUUGGAUCCAGAGGCGGCAGCCUUCGGUGGCGCGAUAGCGCCAACGUUCUCAACUAUGACACGCAAAACGCGUGCUCCGUUUAAUGGAGUUUAUCAUG | -3.44
10 | GGAUCUUCUCGAUCUAACAGAAAAGACAAAUCUGCCACAAAGCUUGAGAGCAUCUUCGGAUGCAGAGGCGGCAGCCUUCAGGGGCGCGAUAGCGUCAACGUUCUCAACUAUGACACGCAAAACGCGUGCUCCGUUGAAUGGAGUUUAUCAUG | -1.15
11 | GGAUCUUCUCGAUCUAACAGAAAAGACAAAUCUACCACAAAGCUUGAGAGCAUCUUCGGAUGCAGAGGCGGCAGCCUUCGGUGGCGCGAUAGCGCCAACGUUCUCAACUAUGACACGGAACACGCGUGCUCCGUUGAAUGGAGUUUAUCAUG | -3.83
12 | GGAUCUUCUCGAUCUAACAGAAAAGACAAAUCUGCCACAAAGCUUGAGAGCAUCUUCGGAUGAAGAGGCGGCAACCUUCGGUGGCGCGAUAGAGCCAACGUUCUCAACUAUGACACGCAAAACGCGUGCUCCGUUGAAUGGAGUUUAUCAUG | ≤ -4.2
13 | GGAUCUUCUCGAUCUAACAGAAAAGACAAAUCUGCCACAAAGCUUGAGAGCAUCUUCGGAUGCAGAGGCGGCAGCAUUCGGUGGCGCGAGAGCGCCGACGUUCUCAACUAUGACACGCAAAACGCGUGCUCCGUUCAAUGGAGUUUAUCAUG | ≤ -4.2
14 | GGAUCUUCUCGAUCUAACAGAAAAGACAAAUCUGCCACAAAGCUUGAGAGCAUCUUCAGAUGCAGAGGCGGCAGCCUUCGCUGGCGCGAUAGCGCCAACGUUCUCAACUAUGACACGCAAAACGCGUGCUCCGUUGAAUGGCGUUUAUCAUG | -1.55
15 | GGAUCUUCUCGAUCUAACAGAAAAGACAAAUCUGCCACAAAGCUUGAGAGCAUCUUAGGAUGCAGAGGAGGCAGCUUUCGGUGGCGCGAUAGCGCUAACGUUCUCAACUAUGACACGCAAAACGCGUGCUCCGUUGAAUGGAGUUUAUCAUG | -1.94
16 | GGAUCUUCUCGAUCUAACAGAAAAGACAAAUCUGCCACAAAGCUUGAGAGCAUCUUCGAAUGCAGAGGCGGCAGCCAUCGGUGGCGCGAUAGCGUCAACGUUCUCAACUAUGACACUGAAAUCGCGUGCUCCGUUGAAUGGAGUUUAUCAUG | ≤ -4.2
17 | GGAUCUUCUCGAUCUAACAGAAAAGACAAAUCUGCCACAAAGCUUGAGAGCAUCUUCGGAUGCAGAGGCGGCAGCCUUCGGUGGCGCGAUAGCGCAAACGUUCUCAACUAUGACACGCAAAACGCGUGCUCCGUUGAAUGGAGUUUAUCAUG | -1.84
18 | GGAUCUUCUCGAUCUAACAGAAAAGACAAAUCUGCCACAAAGCUUGAGAGCAUCUUCGGAUGCAGAGGUGGCAGCCUUCGGUGCCGCGAUAGCGCCAACGUUCUCAACUAUGACACGCAAAACGCCUGCUCCGUUAAAUGGAGUUUAUCAUG | -1.72
19 | GGAUCUUCUCGAUCUAACAGAAAAGACAAAUCUGCCACAAAGCUUGAGAGCAUCUUGGGAUGCAGCGGCGGCAGCCUUCGGUGGCGCGAUAGCACCAACGUUCUCAACUAUGACACGCAAAACGCGUGCUCUGUUGAAUGGAGUUUAUCAUG | ≤ -4.2

From the RNAGym collection of RNA variant scans (doi:10.1073/pnas.2313332121)
